Laboratory results: patent publication US20220144966A1 (SORRENTO THERAPEUTICS, published 2022)
Where a chain is given by its changes, count along the chain named.

T1: recombinant mouse CD38/His-tag (Sino Biological, catalog #50191-M08H) (mouse, UniProt P56528 45-304)
T1 construct: Bought protein; also called murine CD38 protein; not shown: His-tag
T1 sequence: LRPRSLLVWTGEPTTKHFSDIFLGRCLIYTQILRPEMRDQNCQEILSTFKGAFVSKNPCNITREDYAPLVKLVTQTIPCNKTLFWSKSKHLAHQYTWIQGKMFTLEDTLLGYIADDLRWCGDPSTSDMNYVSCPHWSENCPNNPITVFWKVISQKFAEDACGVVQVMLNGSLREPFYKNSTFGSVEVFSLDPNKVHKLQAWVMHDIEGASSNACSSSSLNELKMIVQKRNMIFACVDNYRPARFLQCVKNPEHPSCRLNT

B1: parent antibody A2 (antibody, V domains shown)
VH: QVQLVESGGGLVKPGGSLRLSCAASGFTFSDDYMSWIRQAPGKGLEWVASVSNGRPTTYYADSVRGRFTISRDNAKNSLYLQMNSLRAEDTAVYYCAREDWGGEFTDWGRGTLVTVSS
VL: QAGLTQPPSASGTSGQRVTISCSGSSSNIGINFVYWYQHLPGTAPKLLIYKNNQRPSGVPDRFSGSKSGNSASLAISGLRSEDEADYYCAAWDDSLSGYVFGSGTKVTVL
notes: Only variable domains are tied to A2; also called A2-IgG1; anti-CD38-A2 parent antibody
B2: variant antibody 3E10 (antibody, V domains shown)
VH: B1 VH
VL: B1 VL with I31F, N32H
notes: it was captured by anti-human Fc in SPR
B3: variant antibody 3G3 (antibody, V domains shown)
VH: B1 VH with D100A, G102S, R110Q
VL: B1 VL
B4: variant antibody 3H10m1 (antibody, V domains shown)
VH: B1 VH with D100G, G102S, R110Q
VL: B1 VL with I31F, N32H

Legend:
[1] = molecular target: T2, recombinant cynomolgus CD38/His-tag (Sino Biological, catalog #90050-C08H) (cynomolgus monkey, UniProt Q5VAN0 44-300); experiment: ELISA, His-tagged CD38 captured on Ni-NTA plate, antibody about 1 µg/mL
T2 construct: Bought protein; also called cynomolgus CD38 protein; not shown: His-tag

[2] = molecular target: T1, recombinant mouse CD38/His-tag (Sino …); experiment: ELISA, His-tagged CD38 captured on Ni-NTA plate, HRP anti-human Fc, OD 450 nm
[3] = molecular target: T3, cynomolgus CD38 on cynomolgus monkey T cells (cynomolgus monkey, UniProt Q5VAN0 1-300); experiment: flow cytometry on cynomolgus peripheral blood lymphocytes co-stained with anti-CD3 FITC
T3 construct: Native CD38 on peripheral blood lymphocytes from cynomolgus monkey blood, co-stained with anti-CD3 FITC; also called cynomolgus T cells

[4] = molecular target: human CD38 on cells (Raji, Ramos, RPMI 8226, human T cells) (human, UniProt P28907 1-300); experiment: flow cytometry on non-activated or activated human T cells, 10, 1 or 0.1 µg/mL

| Binder | binding result [1] | binding result [2] | binding result [3] | binding result [4] |
| --- | --- | --- | --- | --- |
| B1 | binds | no binding (tested: about 1 µg/mL) | binds | – |
| B2 | – | – | – | binds |
| B3 | – | – | binds | – |
| B4 | – | – | binds | – |
